# Data as given in the nanobody polyreactivity screen of Harvey et al. (2022).
# Experiment: yeast display, Sf9 membrane polyspecificity reagent, FACS + sequencing; frameworks hold sequencing errors
# Summary of the method: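 Polyreactivity labels are assigned by the sorting gate from which each nanobody was recovered. The gates were low and high (top ~1%), set on anti-HA fluorescence for expression and streptavidin fluorescence for reagent binding. Before sorting, galactose-induced (36–48 hours) yeast display cells were stained for 1 hour at 4 °C with 10% biotinylated, detergent-solubilized Sf9 membrane reagent.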
row,Sequence,polyreactivity (PSR sort gate)
1,QVQLVESGGGLVQAGGRLRLSCAASGSIFGVYAMGWYRQSPGKERELVATISRSGAITYYADSVKGRFTISRDNAKNTVYLQMNSLKPEDTAVYYCAADFFSRDWGQGTQVTVSS,low polyreactivity
2,QVQLVESGGGLVQAGGRLRLSCAASGSIFITYDMGWYRQAPGKERELVATISTTGGTTYYADSVKGRFTISRDNAMNTVYLQMNSLKPEDTAVYYCAADWRYLYYALDYWGQGTQVTVSS,low polyreactivity
3,QVQLVESGGGLVQAGGRLRLSCAASGSIFNSYAMGWYRQAPGTEREFVASIPKSGGTTYYADSVKGRFTISRDNAKNTVYLQMNSLKPEDTAVYYCAADWYRSSWTYNYWGQGTQVTLSS,low polyreactivity
4,QVQLVESGGGLVQAGGRLRLSCAASGSIFPQYAMGWYRQAPGKERELVAAITWSGSRTRYADSVKGRFTISRDNAKNTVYLQMNSLKPEDTAVYYCAARVNGQTYYYWGQGTQVTVSS,high polyreactivity
5,QVQLVESGGGLVQAGGRLRLSCAASGSIFVPNAMGGYRQAPGKERELVAAISGIGGSTSYADSEKGRFTISRDNAKNTVDLHMNSLQQEDTAVYYCARADKLHTRGWGRWGSGSYSWGQGTQVTVSS,low polyreactivity
6,QVQLVESGGGLVQAGGRLRLSCAASGSIFYRSAMGWYRQAPGKERELVAAITRSDGRTYYADSVKGRFTISRDNAKNTVYLQMNSLKPEDTAVYYCNKDGAYKTAYKRWTLYDYWGQGTQVTVSS,low polyreactivity
7,QVQLVESGGGLVQAGGRLRLSCAASGSISNRYAMGWYRQAPGKERELVAAISTGGGTTYYADSVKGRFTISRDNAKNTVYLQMNSLKPEDTAVYYCAADDWRYYRELDYWGQGTQVTVSS,low polyreactivity
8,QVQLVESGGGLVQAGGRLRLSCAASGSNFGSNAMGWYRQAPGKESEFVAVITCRVGDTYYADSVKGRFTISRDNAKNTVYLQMYSLKPEDTAVYYCNVDWKVYGAPDYRIAWKYDYWGQGTQVTVSS,low polyreactivity
9,QVQLVESGGGLVQAGGRLRLSCAASGSSFLGYVMGWSRQAPGKERELVAAITRSGGRTYYADSVKGRFTISRDNAKNTVYLQMTSLNPEDTAVYYCAALRGPSFHGYGYWGQGSQVTVSS,high polyreactivity
10,QVQLVESGGGLVQAGGRLRLSCAASGSTCGPYTLGWYRQAPGTEREVVATISSGGSTYYADSVKWRFTISRDNAKNTVYLQMNSLKPEDTAVYFCNKDFFYLRTWRSVYEFEYWGQGTQVTVSS,low polyreactivity
11,QVQLVESGGGLVQAGGRLRLSCAASGSTFEINVMGWYRQAPGKERELFAAITYSGGSTYYADSVKGRFTISRDNEKNTVYLQMNSLKPEDTAVYYWNADYILDAQYDYWGQGTQVTVSS,low polyreactivity
12,QVQLVESGGGLVQAGGRLRLSCAASGSTFGFNAMGWSREAPGKERELVAASNDSGGDTYYADSVKGRFTSSRDNAKNTVYLQMNSLKPEDTAVYYCAADEPSSVYGILVELEYWGQGTQVTVST,high polyreactivity
13,QVQLVESGGGLVQAGGRLRLSCAASGSTFGINAMGWYRQAPGKERELVAAITSTGRTYYADSVKGRFTISRDNAKNTVYLQMNSLKPEDTAVYYCAAVWRYKGLLLPSYYYWGQGTQVTVSS,high polyreactivity
14,QVQLVESGGGLVQAGGRLRLSCAASGSTFHYYAMGWDRQAPGKERELVAAISQSGSGTYYADSVKGLFTISRDNAKKTVYLQMNSLKPEDTAVYYCAKDITGLSRYRRDYWGQGTQVTVSS,low polyreactivity
15,QVQLVESGGGLVQAGGRLRLSCAASGSTFQFYAMGWYRQAPGKERELVAAITSSGSSTYYADSVKGRFTISRDNAKNTVYLQMNSLKPEDTAVYYCAARYYGYSVSYYYWGQGTQVTVSS,high polyreactivity
16,QVQLVESGGGLVQAGGRLRLSCAASGSTFSFNAMGWYRQAPGKERELVAAIRVSSGTTYYADSVKGRFTISRDNAKNTVYLQMNSLKPEDTAVYYCAARYYYDWRQYGYWGQGTQVTVSS,high polyreactivity
17,QVQLVESGGGLVQAGGRLRLSCAASGSTFWGYTMGWYRQAPGKERELVAAISTIGGSTYYADSVKGRFTISRDNAKNTVYLQMNSLKTEDTAVYYCAAYKGKHYKEGYWGQGTQVTVSS,low polyreactivity
18,QVQLVESGGGLVQAGGRLRLSCAASGSTFWYYAMGWSRQAPGKEREFVAAITTGGSSTYYADSVKGRFTISRDNAKNTVYLQMNSLKPEDTAVYYCAARGWRSPYAYYYWGQGTQVTVSS,high polyreactivity
19,QVQLVESGGGLVQAGGRLRLSCAASGTFRRNAMGWYRQAPGKERELVAAIRWSGGITYYADSVKGRFTISRDNAKNTVYLQMNSLKPEDTADYYCSGQRYYGFGKTYYYWGQGTQVTVSS,high polyreactivity
20,QVQLVESGGGLVQAGGRLRLSCAASGYTFAGNAMGGYRPAPGKERELVAVITYSGGSTYYADSVKGRFTISRDNAKNTVYLQMNSLKPEDTAVYYCAADWQYSPRMDYWGQGTQVTVSS,low polyreactivity
21,QVQLVESGGGLVQAGGRLRLSCAASGYTFGVYDMGWYRQAPGKERELVAAISGSTYYADSVKGRFTISRDNAKNTVYLQMNSLKPEDTAVYYCAAESYFFSPRTREKFDYWGQGTQVTVSS,low polyreactivity
22,QVQLVESGGGLVQAGGRLRLSCAASVFTYKSYAMVWYRQAPGKERELVASIDKSTGNTFYADSVKGRFTISRDNAKNTVYLQMNSLKPEDTAVYYCAVDLLRSESHSKHIIYDYWGQGTQVTVSS,low polyreactivity
